{
  "source": "paper PMC8227597",
  "molecular_target": "Biotinylated human ACE2 (angiotensin-converting enzyme 2) (human) (UniProt Q9BYF1)",
  "assay": "SPR",
  "note": "pKd: −log10 of the molar value.",
  "data": [
    {"substance": "Trimer spike of SARS-CoV-2, furin cleavage site deleted and two stabilizing mutations, C-terminal His-tag (domain or fragment)", "values": [
      {"measurement": "pKd", "value": 9.15}
    ]}
  ]
}
